Laboratory results from patent publication US5690954A, “Enhanced uptake drug delivery system having microspheres containing an active drug and a bioavailability improving material” (priority 1987, dated 1997).

What was measured:
[1] = Comparative studies: nasal insulin with various materials with and without starch microspheres; format: in vivo; settings: sheep; for decrease in plasma glucose and increase in absorption versus starch microspheres alone: nasal powder
Method: A series of studies were carried out to determine the effect on the administration of insulin of various enhancers with and without microsphere particles. All of the studies were carried out in sheep and the insulin was administered intranasally either in solution or powder formulation. The preparation of the various insulin formulations and the method of administration and result taking were all as described earlier.

[2] = Bioavailability enhancement by microspheres plus bioavailability increasing material (general statement); settings: microspheres with lysophosphatidylcholine
Excerpt: The material selected for these studies has been lysophosphatidylcholine (described above).

[3] = without enhancer; cited from earlier work
[4] = intranasal with Laureth 9; cited from earlier work
[5] = nasal, sodium deoxycholate; cited from earlier work
[6] = dogs, powder with cellulosic material and Carbopol 934; cited from earlier work
[7] = rats, nasal polyacrylic acid gel, versus normal formulation; cited from earlier work
[8] = Insulin nasal in sheep, plasma glucose and plasma insulin
[9] = intranasal simple solution, 2 IU/kg
[10] = intranasal solution with 0.2% LPC
[11] = intranasal starch microspheres and LPC
[12] = intranasal starch microspheres and LPC, 2 IU/kg

Substance: insulin: Zn-crystallized highly purified semisynthetic human insulin (sheep studies)
- shape of absorption profile ([1]; nasal): sharp peak
- plasma glucose level versus insulin in GDC solution ([1]; nasal 2 IU/kg, GDC 0.08 mg/kg and starch microspheres 2.5 mg/kg): decreased considerably more
- absorption (plasma insulin levels) ([1]; nasal 2 IU/kg, GDC and starch microspheres): enhanced absorption
- decrease in plasma glucose and increase in absorption versus starch microspheres alone ([1]; starch microspheres with N-acetyl cysteine): considerably increased
- decrease in plasma glucose and increase in absorption versus starch microspheres alone ([1]; starch microspheres with aprotinin): considerably increased
- effect on plasma glucose levels versus LPC-M alone in solution ([1]; nasal, LPC-M and starch microspheres): considerably increased effect
- enhancement concept, outcome [2]: successful
- absorption efficiency across the nasal membrane [3]: about 1.2 % of the administered dose
- appearance of peak level [4]: rapidly
- dose response [4]: clear dose response relationship
- effect of increasing amounts of bile salt on absorption [5]: striking effect
- absorption after nasal application [6]: increase the absorption
- plasma glucose levels [7]: significant decrease
- shape of plasma glucose profile versus intravenous insulin ([8]; intranasal insulin-microsphere-enhancer system): very similar to the one obtained for the intravenous insulin
- amount of insulin absorbed [8, 9]: very low
- effect on plasma glucose level [8, 9]: does not have a significant effect
- amount of insulin appearing in the circulation [8, 10]: increases the amount of insulin appearing in the circulation
- plasma glucose level [8, 10]: somewhat lower
- decline of insulin level after peak [8, 11]: decreases rapidly as for intravenous insulin
- relative bioavailability versus subcutaneous injection [8, 11]: about 25%
- time of peak insulin level [8, 11]: 15 to 20 min
- increase in AUC of plasma insulin versus simple nasal solution [8, 12]: 693%
- increase in peak insulin level versus simple nasal solution [8, 12]: 1040%
